The record followed here is publication PMC12121391, “Crystal structure of ATP-dependent DNA ligase from Rhizobium phage vB_RleM_P10VF”.

The target of the data set is T1, P10VF-Lig (ATP-dependent DNA ligase) (Rhizobium phage vB_RleM_P10VF, UniProt A0A076YM08).
T1 sequence: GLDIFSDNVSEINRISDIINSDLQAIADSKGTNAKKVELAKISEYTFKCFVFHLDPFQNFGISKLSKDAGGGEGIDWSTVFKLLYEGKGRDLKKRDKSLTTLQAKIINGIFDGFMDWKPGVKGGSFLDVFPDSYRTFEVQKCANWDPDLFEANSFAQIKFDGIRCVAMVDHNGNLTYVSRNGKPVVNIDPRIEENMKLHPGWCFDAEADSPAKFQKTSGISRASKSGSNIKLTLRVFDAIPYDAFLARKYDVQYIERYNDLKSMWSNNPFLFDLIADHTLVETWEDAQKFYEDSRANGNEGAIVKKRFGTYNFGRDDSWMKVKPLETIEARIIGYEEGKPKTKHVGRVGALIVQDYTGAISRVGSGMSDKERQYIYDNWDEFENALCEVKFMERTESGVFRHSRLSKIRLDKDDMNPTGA
The experiment in a line: X-ray crystallography; AMP transferred to the DNA 5'-phosphate (step 2 intermediate); EDTA 5 mM; 2.2 Å; Crystallization: protein in 50 mM Tris pH 7.5, 200 mM NaCl, 1 mM beta-mercaptoethanol; 1.2 eq nicked duplex, 5 mM EDTA, 30 min on ice; 24% PEG 4000, 100 mM bis-Tris pH 5.5, 4 °C (278 K in Table 2). The settings on record: protein: recombinant, SeMet-substituted, 21 bp, blunt ends.

B1: nicked DNA duplex (21 nt complement, 10 + 11 nt nicked strand) (dsDNA)
DNA 1: TTCCGACAGTGGGGTCGCAAT
DNA 2: ATTGCGACCC
DNA 3: CACTATCGGAA
modifications: 2'-O-methyl one nucleotide upstream of the 3' terminus at the nick (strand 2); 5'-phosphate at the nick (strand 3), adenylated (AMP) in the crystal
For B1, the binding result is reported as “binds”.
